Target: the molecule itself
Assay: SEC

Protein	binding result	stoichiometry N
KicGAS^9-104 (domain or fragment, UniProt Q2HR80 9-104, looked up) KKDLTMEDLTAKISQLTVENRELRKALGSTADPRDRPLTATEKEAQLTATVGALSAAAAKKIEARVRTIFSKVVTQKQVDDALKGLSLRIDVCMSD	binds	
KicGAS L17R (natural protein, UniProt Q2HR80 1-131, looked up) MAAPRGRPKKDLTMEDRTAKISQLTVENRELRKALGSTADPRDRPLTATEKEAQLTATVGALSAAAAKKIEARVRTIFSKVVTQKQVDDALKGLSLRIDVCMSDGGTAKPPPGANNRRRRGASTTRAGVDD		2
KicGAS L35R (natural protein, UniProt Q2HR80 1-131, looked up) MAAPRGRPKKDLTMEDLTAKISQLTVENRELRKARGSTADPRDRPLTATEKEAQLTATVGALSAAAAKKIEARVRTIFSKVVTQKQVDDALKGLSLRIDVCMSDGGTAKPPPGANNRRRRGASTTRAGVDD	binds	
KicGAS P41S/P45I (natural protein, UniProt Q2HR80 1-131, looked up) MAAPRGRPKKDLTMEDLTAKISQLTVENRELRKALGSTADSRDRILTATEKEAQLTATVGALSAAAAKKIEARVRTIFSKVVTQKQVDDALKGLSLRIDVCMSDGGTAKPPPGANNRRRRGASTTRAGVDD	binds	
KicGAS L35A (natural protein, UniProt Q2HR80 1-131, looked up) MAAPRGRPKKDLTMEDLTAKISQLTVENRELRKAAGSTADPRDRPLTATEKEAQLTATVGALSAAAAKKIEARVRTIFSKVVTQKQVDDALKGLSLRIDVCMSDGGTAKPPPGANNRRRRGASTTRAGVDD	binds	

Source: article PMC9388135 (Proceedings of the National Academy of Sciences of the …, 2022)
